Results on 22 substances are retold here after patent US8242078B2, “Therapeutics to inhibit MLL-menin interaction for treating leukemia” (The University of Chicago, priority 2006, dated 2012).

Entries after “also recorded” stand apart in the source; their conditions may differ.

One assay addresses T1, interaction of transfected MLL with endogenous menin (Homo sapiens, UniProt O00255).
T1 construct: endogenous in cells; host or cells: 293 cells (lysate; cells transfected with FLAG-MLL 1-330)
T1 sequence (O00255 1-610): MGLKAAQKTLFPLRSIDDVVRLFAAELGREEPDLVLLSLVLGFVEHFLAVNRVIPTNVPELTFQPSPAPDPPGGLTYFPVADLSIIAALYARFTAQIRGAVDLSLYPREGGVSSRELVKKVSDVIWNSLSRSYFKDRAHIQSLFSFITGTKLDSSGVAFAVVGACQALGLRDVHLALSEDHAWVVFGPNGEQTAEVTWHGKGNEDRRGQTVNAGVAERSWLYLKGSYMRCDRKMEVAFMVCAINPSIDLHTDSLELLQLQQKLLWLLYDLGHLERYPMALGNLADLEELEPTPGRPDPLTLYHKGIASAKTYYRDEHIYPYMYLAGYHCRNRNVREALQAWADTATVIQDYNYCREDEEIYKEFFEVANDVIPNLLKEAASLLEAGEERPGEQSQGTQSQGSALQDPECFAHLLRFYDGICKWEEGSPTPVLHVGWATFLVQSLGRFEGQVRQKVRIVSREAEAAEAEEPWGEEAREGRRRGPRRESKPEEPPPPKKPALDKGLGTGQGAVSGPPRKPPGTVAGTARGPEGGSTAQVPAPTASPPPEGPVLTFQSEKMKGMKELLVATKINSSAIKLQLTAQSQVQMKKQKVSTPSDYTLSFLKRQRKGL
Briefly: Disruption of binding of transfected FLAG-tagged MLL 1-330 to endogenous menin (anti-FLAG immunoprecipitation, anti-menin Western blot). Particulars: each peptide tested at 10, 20, and 30 μM. As to the method:
To determine the precise domain that mediates the binding of MLL to menin, a series of peptides from the N-terminus of MLL were synthesized. To assess disruption of binding of transfected MLL to endogenous menin, a FLAG-tagged MLL 1-330 construct was transfected into 293 cells and the cell lysates were incubated with a series of peptides listed below or with water as a control. Cell lysates were immunoprecipitated with anti-FLAG antibody (Sigma), separated by SDS-PAGE and blotted with an anti-menin antibody (Bethyl Laboratories Inc, or Santa-Cruz). The amino acid numbers from the N-terminus of MLL are indicated below (preceding the amino acid sequence) for the peptides analyzed for their ability to disrupt the interaction of MLL and menin.
Conditional inactivation of menin results in the reversal of the transforming properties of MLL fusion proteins. A high affinity menin binding domain has been localized to the N-terminal residues of MLL, and deletion of residues 6 through 10 of MLL prevents MLL-ELL from transforming hematopoietic progenitor cells. To target the MLL-menin interaction, a series of peptides were developed for the potential to block the interaction of menin with MLL. To establish the activity of these peptides, lysates of cells transfected with FLAG-tagged N-terminal MLL sequences were examined. The lysates were immunoprecipitated with a FLAG antibody, incubated with either an MLL peptide or a control scrambled peptide, and then blotted with an anti-menin antibody. […] To examine the activity of the TAT-MLL peptide, mouse and human leukemia cell lines were treated with the TAT-MLL peptide. […] (#TIB-202, American Type Culture Collection, Manassas, Va.).
Background: A western blot detects proteins with antibodies after separation by electrophoresis.
On to “CRWRFPARPG (SEQ ID NO: 14) [MLL peptide 5-14]”, for which the “inhibition of the binding of transfected MLL 1-330 to endogenous menin (Western blot, FIG. 2)” value is recorded as “dose-dependent inhibition”.

On to “RKKRRQRRR-GG-MAHSCRWRFPARPGTTGG (SEQ ID NO: 17) (RKKRRQRRRGGMAHSCRWRFPARPGTTGG) [TAT-MLL 1-18, longer MLL peptide, residues 1-18, fused to TAT]”, for which the “inhibition of the binding of transfected MLL 1-330 to endogenous menin (Western blot, FIG. 2)” value is “dose-dependent inhibition”.

The same assay, now with this note: lysates of 293 cells transfected with FLAG-tagged MLL 1-330, incubated with peptide; anti-FLAG IP, anti-menin blot.
On to “AHSCRWRFPARPG (SEQ ID NO: 11) [MLL peptide 2-14, peptide from the N-terminus of MLL, amino acids 2-14]”, for which the “block of the interaction of transfected MLL with endogenous menin (Western blot, FIG. 1)” value (“block” below) is “block the interaction of transfected MLL with endogenous menin”. For “AHSCRWRFPARPGTTGG (SEQ ID NO: 7) [MLL peptide 2-18, peptide from the N-terminus of MLL, amino acids 2-18]”, the “block” value is “block the interaction of transfected MLL with endogenous menin”.

Consider “CRWRFPARPG (SEQ ID NO: 14) [MLL peptide 5-14]”, for which the “block” value is listed as “block the interaction of transfected MLL with endogenous menin; also recorded: sufficient to block interaction with endogenous menin”.

Regarding “CRWRFPARPGTTGG (SEQ ID NO: 10) [MLL peptide 5-18, peptide from the N-terminus of MLL, amino acids 5-18]”, the “block” value is “block the interaction of transfected MLL with endogenous menin”. Same read-out and setting: with “HSCRWRFPARPG (SEQ ID NO: 12) [MLL peptide 3-14, peptide from the N-terminus of MLL, amino acids 3-14]” the entry was “block the interaction of transfected MLL with endogenous menin”; with “HSCRWRFPARPGTTGG (SEQ ID NO: 8) [MLL peptide 3-18, peptide from the N-terminus of MLL, amino acids 3-18]”, “block the interaction of transfected MLL with endogenous menin”. Same read-out and setting: as for “MAHSCRWRFP (SEQ ID NO: 19) [MLL peptide 1-10, peptide from the N-terminus of MLL, amino acids 1-10]”, the entry is “do not block the interaction of MLL with menin”; as for “MAHSCRWRFPA (SEQ ID NO: 20) [MLL peptide 1-11, peptide from the N-terminus of MLL, amino acids 1-11]”, “do not block the interaction of MLL with menin”.

“MAHSCRWRFPAR (SEQ ID NO: 21) [MLL peptide 1-12, peptide from the N-terminus of MLL, amino acids 1-12]”: the “block” value was “do not block the interaction of MLL with menin”. Still for that read-out and setting: as for “MAHSCRWRFPARP (SEQ ID NO: 1) [MLL peptide 1-13, peptide from the N-terminus of MLL, amino acids 1-13]”, the entry is “block the interaction of transfected MLL with endogenous menin”; as for “MAHSCRWRFPARPG (SEQ ID NO: 2) [MLL peptide 1-14, peptide from the N-terminus of MLL, amino acids 1-14]”, “block the interaction of transfected MLL with endogenous menin”; as for “MAHSCRWRFPARPGTTGG (SEQ ID NO: 3) [MLL peptide 1-18, peptide from the N-terminus of MLL, amino acids 1-18]”, “block the interaction of transfected MLL with endogenous menin”. The same measure, in the same setting: as for “MAHSCRWRFPARPGTTGGGGGG (SEQ ID NO: 4) [MLL peptide 1-22, peptide from the N-terminus of MLL, amino acids 1-22]”, the entry is “block the interaction of transfected MLL with endogenous menin”. Regarding “MAHSCRWRFPARPGTTGGGGGGGRRG (SEQ ID NO: 5) [MLL peptide 1-26, peptide from the N-terminus of MLL, amino acids 1-26]”, the “block” value is listed as “block the interaction of transfected MLL with endogenous menin”. Same read-out and setting: as for “MAHSCRWRFPARPGTTGGGGGGGRRGLGGG (SEQ ID NO: 6) [MLL peptide 1-30, peptide from the N-terminus of MLL, amino acids 1-30]”, the entry is “block the interaction of transfected MLL with endogenous menin”; as for “RFPARPGTTGG (SEQ ID NO: 24) [MLL peptide 8-18, peptide from the N-terminus of MLL, amino acids 8-18]”, “do not block the interaction of MLL with menin”. For “RWRFPARPG (SEQ ID NO: 25) [MLL peptide 6-14, peptide from the N-terminus of MLL, amino acids 6-14]”, the “block” value is given as “do not block the interaction of MLL with menin”. In the case of “RWRFPARPGTTGG (SEQ ID NO: 22) [MLL peptide 6-18, peptide from the N-terminus of MLL, amino acids 6-18]”, the “block” value is listed as “do not block the interaction of MLL with menin”. On the same count and under the same terms, as for “SCRWRFPARPG (SEQ ID NO: 13) [MLL peptide 4-14, peptide from the N-terminus of MLL, amino acids 4-14]”, the entry is “block the interaction of transfected MLL with endogenous menin”.

As for “SCRWRFPARPGTTGG (SEQ ID NO: 9) [MLL peptide 4-18, peptide from the N-terminus of MLL, amino acids 4-18]”, the “block” value was “block the interaction of transfected MLL with endogenous menin”. On to “WRFPARPGTTGG (SEQ ID NO: 23) [MLL peptide 7-18, peptide from the N-terminus of MLL, amino acids 7-18]”, for which the “block” value is on record as “do not block the interaction of MLL with menin”.
